Measurements reported in doi:10.1101/2024.10.15.618347.

Molecular target: YTHDC1 YTH domain (UniProt Q96MU7 345-509)
Test: EMSA

AACUUAAUGUUUUUGCAUUGGACUUUGAGUU (ssRNA, m6A at position 22 (GGACU to GG(m6A)CU)) [MALAT1 oligo, m6A]: binds.
